According to patent US20250313611A1:

Legend:
[1] = target: recombinant human FcRn/FCGRT-B2M heterodimer protein (human) (UniProt P55899); test: SPR, steady state affinity, pH 6.0
[2] = target: recombinant human FcRn/FCGRT-B2M heterodimer protein (human) (UniProt P55899); test: SPR Biacore 8K+, antibody on CM5 chip, FcRn in solution, pH 6.0
[3] = target: SARS-COV-2 RBD (His-tagged, Sinobiologicals) (SARS-CoV-2 (Wuhan)) (UniProt P0DTC2); test: ELISA, coated antigen, dilution series, OD450 [3/3]
[4] = target: recombinant prefusion-stabilized SARS-COV-2 spike protein S-6P (SARS-CoV-2 (Wuhan)) (UniProt P0DTC2); test: as above
[5] = target: recombinant stabilized SARS-COV-1 Spike protein ([change], with foldon) (SARS-CoV-1) (UniProt P59594); test: as above

recombinant human FcRn/FCGRT-B2M heterodimer protein (human), sequence (P55899 24-297 limits assumed, chain 1 of 2): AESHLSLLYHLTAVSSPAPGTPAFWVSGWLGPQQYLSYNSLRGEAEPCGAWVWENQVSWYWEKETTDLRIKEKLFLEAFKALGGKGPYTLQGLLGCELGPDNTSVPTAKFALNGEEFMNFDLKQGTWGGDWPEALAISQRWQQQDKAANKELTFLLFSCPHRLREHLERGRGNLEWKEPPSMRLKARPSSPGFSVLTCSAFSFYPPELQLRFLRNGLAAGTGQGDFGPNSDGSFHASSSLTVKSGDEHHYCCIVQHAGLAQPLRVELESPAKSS
recombinant human FcRn/FCGRT-B2M heterodimer protein (human), sequence (P61769 21-119 limits assumed, chain 2 of 2, further chain): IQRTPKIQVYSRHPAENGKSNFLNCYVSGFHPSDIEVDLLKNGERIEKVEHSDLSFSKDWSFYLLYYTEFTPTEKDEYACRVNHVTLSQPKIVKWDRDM

Substance: Bebtelovimab Biosimilar (PX-TA1750) (antibody)
- Kd [1]: 19.4 nM
- RUmax (steady state affinity, pH 6.0) [2]: 57.1 RU

Substance: S309 monoclonal antibody
- EC50 (read off the curve) [3]: 0.1 µg/mL
- EC50 (read off the curve) [4]: 0.09 µg/mL
- EC50 (read off the curve) [5]: 0.04 µg/mL

Substance: human IgG1 isotype control antibody
- Kd [1]: 15 nM
- RUmax (steady state affinity, pH 6.0) [2]: 37.5 RU
